According to paper PMC2564605 (Journal of molecular biology, 2008):

Target: the molecule itself
Experiment: SDS-PAGE and Western blot

B1: His-tagged aquaporin-9 (natural protein, UniProt P56627 1-295, looked up)
chain: MPSEKDGAKKSLMQRLALKSRIAKETLSEFLGTFIMIVLGCSSIAQAVLSRERFGGIITINIGFASAVVMALYVTFGISGGHINPAVSFAMCAFGRMEWFKFPFYVGAQFLGAFVGAATVFGIYYDGLMAFAGGKLLVVGENATAFIFATYPAPFISTPGAFVDQVVSTMFLLLIVFAMFDSRNLGVPRGLEPVVIGLLIIVLSCSLGLNSGCAMNPARDLSPRLFTALAGWGFEVFTVGNNFWWIPVVGPMIGAFLGGLIYILFIQMHHSKLDPDMKAEPSENNLEKHELSVIM
modifications: unglycosylated (~32 kDa) and glycosylated (~35 kDa) forms
stoichiometry N: 2
